# In article PMC6698962 (Antibodies, 2018):
# Where “and” joins values, the source holds several entries; their conditions need not be identical. Equal entries are not always repeated.
# B1: fluorescent-binding TNF nanobody (BTN-Kat) (VHH)
# VHH: QVQLVESGGGSVQAGGSLRLSCAASGSTNSELCMAWFREVPGKEREVVALVNSDGRTIYGEAVKGRFTMSKDNAKNTLYLQMNSLKAEDTAMYYCAAGPGFFGRCNYNSVGQGTQVTVSS
# notes: flexible glycine-serine linker; far-red fluorescent protein Katushka (TurboFP635); A mixture of oligomeric forms was used in all experiments; Expression and purification are in Method S1; also called VHH41 fused to Katushka; source: E. coli (BL21(DE3) is named in the title of Result S1), purified
# Legend:
# [1] = molecular target: fluorescent-binding TNF nanobody (BTN-Kat) (Bactrian camel); assay: SEC; Superose 6, 5 mg/mL protein, 20 mM NaPi pH 7.4, 150 mM NaCl, 0.5 mL/min; apparent molecular mass from calibration with standard proteins
# [2] = molecular target: T1, mouse tumor necrosis factor (TNF) (Mus musculus C57Bl/6, UniProt P06804); assay: flow cytometry on cells; intracellular cytokine staining (BD fixation and permeabilisation kit with GolgiPlug) of BMDM activated by LPS (100 ng/mL, 4 h) in the presence of brefeldin A; Fc-gamma receptor blocked; cells gated on F4/80; Katushka fluorescence read; details: one partner purified
# T1 construct: tumor necrosis factor, mouse; stained inside fixed and permeabilised cells kept with brefeldin A; also called mouse TNF; murine TNF
# T1 sequence (P06804 whole entry): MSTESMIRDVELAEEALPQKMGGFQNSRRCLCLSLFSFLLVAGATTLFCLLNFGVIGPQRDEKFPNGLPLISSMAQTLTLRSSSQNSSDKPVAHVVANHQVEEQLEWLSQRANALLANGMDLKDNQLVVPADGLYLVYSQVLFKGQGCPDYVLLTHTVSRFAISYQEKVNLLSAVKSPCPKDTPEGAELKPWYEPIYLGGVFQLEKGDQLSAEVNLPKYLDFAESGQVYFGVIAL
# [3] = molecular target: T2, human tumor necrosis factor (TNF) (Homo sapiens (huTNFKI mouse BMDM), UniProt P01375); assay: as above; details: one partner purified
# T2 construct: tumor necrosis factor, human, expressed in place of murine TNF in huTNFKI mice; stained inside fixed and permeabilised cells kept with brefeldin A; in the in vivo rows the hTNF of the knock-in mice; also called hTNF; human TNF
# T2 sequence (P01375 whole entry): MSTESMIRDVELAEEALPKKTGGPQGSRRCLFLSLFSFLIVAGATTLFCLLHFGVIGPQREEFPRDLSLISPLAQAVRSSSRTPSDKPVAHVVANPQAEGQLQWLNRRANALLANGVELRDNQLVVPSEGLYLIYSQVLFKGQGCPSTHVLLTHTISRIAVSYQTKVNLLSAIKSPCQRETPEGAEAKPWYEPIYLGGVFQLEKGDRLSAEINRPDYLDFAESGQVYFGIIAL
binder,measurement,setting,value
B1,stoichiometry N,[1],2 and 3
same,binding result,[2],binds
same,binding result,[3],binds
